The labels stand for the following.
B1: humanized anti-CSP-1 antibody, Antibody Number 21 (Table 1) (antibody, human IgG1, V domains shown)
VH: EVQLVESGGDLVKPGGSLKLSCAASGFTFSRYGMSWVRQTPDKRLEWVATISIGGTYTYYPDSMKGRFTISRDNAKNTLYLQMSSLKSEDTAMYYCARRGYGNYSYYGVDYWGQGTSVTVSS
VL: DIVMTQAAFSNPVTLGTSASISCRSSKSLLHSNGITYLYWYLQKPGQSPQLLIYQMSNLASGVPDRFSSSGSGTDFTLRISRVEAEDVGVYYCAQNLELPLTFGAGTKLELK
notes: also called Antibody 21
B2: humanized anti-CSP-1 antibody, Antibody Number 30 (Table 1) (antibody, human IgG1, V domains shown)
VH: EVQLVESGGEVVKPGASLKLSCKASGFTFSRYGMSWVRQAPGQRLEWVATISIGGTYTYYPDSMKGRFTITRDNSTNTLYLEMSSLRSEDTAMYYCARRGYGNYSYYGMDYWGQGTLVTVSS
VL: DIVMTQAAFSNPVTLGTSASISCRSSKSLLHSNGITYLYWYLQKPGQSPQLLIYQMSNLASGVPDRFSSSGSGTDFTLRISRVEAEDVGVYYCAQNLELPLTFGAGTKLELK
notes: also called Antibody 30
B3: humanized anti-CSP-1 antibody, Antibody Number 36 (Table 1) (antibody, human IgG1, V domains shown)
VH: EVQLVESGGGLVQPGGSLRLSCAASGFTFSRYGMSWVRQAPGKRLEWVATISIGGTYTYYPDSMKGRFTISRDNSKNTLYLQMNSLRAEDTAMYYCARRGYGNYSYYGMDYWGQGTLVTVSS
VL: DIVMTQSALSNPVTLGQSASISCRSSKSLLHSNGITYLYWYLQKPGQSPQLLIYQMSNRASGVPDRFSSSGSGTDFTLKISRVEAEDVGVYYCAQNLELPLTFGQGTKLEIK
notes: also called Antibody 36
B4: humanized anti-CSP-1 antibody, Antibody Number 35 (Table 1) (antibody, human IgG1, V domains shown)
VH: EVQLVESGGEVVKPGASLKLSCKASGFTFSRYGMSWVRQAPGQRLEWVATISIGGTYTYYPDSMKGRFTITRDNSTNTLYLEMSSLRSEDTAMYYCARRGYGNYSYYGMDYWGQGTLVTVSS
VL: DIVMTQSALSNPVTLGQSASISCRSSKSLLHSNGITYLYWYLQKPGQSPQLLIYQMSNRASGVPDRFSSSGSGTDFTLKISRVEAEDVGVYYCAQNLELPLTFGQGTKLEIK
notes: also called Antibody 35
B5: humanized anti-CSP-1 antibody, Antibody Number 37 (Table 1) (antibody, human IgG1, V domains shown)
VH: EVQLVESGGGLVQPGGSLRLSCAASGFTFSRYGMSWVRQAPGKRLEWVATISIGGTYTYYPDSMKGRFTISRDNSKNTLYLQMNSLRAEDTAMYYCARRGYGNYSYYGMDYWGQGTLVTVSS
VL: DIVMTQSALSLPVTLGQSASISCRSSKSLLHSNGITYLYWYLQKPGQSPQLLIYQMSNRASGVPDRFSSSGSGTDFTLKISRVEAEDVGVYYCAQNLELPLTFGQGTKLEIK
notes: also called Antibody 37
B6: humanized anti-CSP-1 antibody, Antibody Number 38 (Table 1) (antibody, human IgG1, V domains shown)
VH: EVQLVESGGGLVQPGGSLRLSCAASGFTFSRYGMSWVRQAPGKGLEWVATISIGGTYTYYPDSMKGRFTISRDNSKNTLYLQMNSLRAEDTAVYYCARRGYGNYSYYGMDYWGQGTLVTVSS
VL: DIVMTQSALSNPVTLGQSASISCRSSKSLLHSNGITYLYWYLQKPGQSPQLLIYQMSNRASGVPDRFSSSGSGTDFTLKISRVEAEDVGVYYCAQNLELPLTFGQGTKLEIK
notes: also called Antibody 38
B7: humanized anti-CSP-1 antibody, Antibody Number 22 (Table 1) (antibody, human IgG1, V domains shown)
VH: EVQLVESGGDLVKPGGSLKLSCAASGFTFSRYGMSWVRQTPDKRLEWVATISIGGTYTYYPDSMKGRFTISRDNAKNTLYLQMSSLKSEDTAMYYCARRGYGNYSYYGMDYWGQGTSVTVSS
VL: DIVMTQAAFSNPVTLGTSASISCRSSKSLLHSSGITYLYWYLQKPGQSPQLLIYQMSNLASGVPDRFSSSGSGTDFTLRISRVEAEDVGVYYCAQNLELPLTFGAGTKLELK
notes: also called Antibody 22
B8: humanized anti-CSP-1 antibody, Antibody Number 28 (Table 1) (antibody, human IgG1, V domains shown)
VH: EVQLVESGGDLVKPGGSLKLSCAASGFTFSRYGMSWVRQTPDKRLEWVATISIGGTYTYYPDSMKGRFTISRDNAKNTLYLQMSSLKSEDTAMYYCARRGYGNYSYYGMDYWGQGTSVTVSS
VL: DIVMTQAAFSNPVTLGTSASISCRSSKSLLHSNGITYLYWYLQKPGQSPQLLIYQLSNLASGVPDRFSSSGSGTDFTLRISRVEAEDVGVYYCAQNLELPLTFGAGTKLELK
notes: also called Antibody 28
B9: humanized anti-CSP-1 antibody, Antibody Number 27 (Table 1) (antibody, human IgG1, V domains shown)
VH: EVQLVESGGDLVKPGGSLKLSCAASGFTFSRYGMSWVRQTPDKRLEWVATISIGGTYTYYPDSMKGRFTISRDNAKNTLYLQMSSLKSEDTAMYYCARRGYGNYSYYGMDYWGQGTSVTVSS
VL: DIVMTQAAFSNPVTLGTSASISCRSSKSLLHSNGITYLYWYLQKPGQSPQLLIYQVSNLASGVPDRFSSSGSGTDFTLRISRVEAEDVGVYYCAQNLELPLTFGAGTKLELK
notes: also called Antibody 27
B10: humanized anti-CSP-1 antibody, Antibody Number 29 (Table 1) (antibody, human IgG1, V domains shown)
VH: EVQLVESGGDLVKPGGSLKLSCAASGFTFSRYGMSWVRQTPDKRLEWVATISIGGTYTYYPDSMKGRFTISRDNAKNTLYLQMSSLKSEDTAMYYCARRGYGNYSYYGMDYWGQGTSVTVSS
VL: DIVMTQAAFSNPVTLGTSASISCRSSKSLLHSNGITYLYWYLQKPGQSPQLLIYQISNLASGVPDRFSSSGSGTDFTLRISRVEAEDVGVYYCAQNLELPLTFGAGTKLELK
notes: also called Antibody 29
B11: humanized anti-CSP-1 antibody, Antibody Number 24 (Table 1) (antibody, human IgG1, V domains shown)
VH: EVQLVESGGDLVKPGGSLKLSCAASGFTFSRYGMSWVRQTPDKRLEWVATISIGGTYTYYPDSMKGRFTISRDNAKNTLYLQMSSLKSEDTAMYYCARRGYGNYSYYGMDYWGQGTSVTVSS
VL: DIVMTQAAFSNPVTLGTSASISCRSSKSLLHSDGITYLYWYLQKPGQSPQLLIYQMSNLASGVPDRFSSSGSGTDFTLRISRVEAEDVGVYYCAQNLELPLTFGAGTKLELK
notes: also called Antibody 24
B12: humanized anti-CSP-1 antibody, Antibody Number 33 (Table 1) (antibody, human IgG1, V domains shown)
VH: EVQLVESGGDLVKPGGSLKLSCAASGFTFSRYGMSWVRQTPDKRLEWVATISIGGTYTYYPDSMKGRFTISRDNAKNTLYLQMSSLKSEDTAMYYCARRGYGNYSYYGMDYWGQGTSVTVSS
VL: DIVMTQSALSNPVTLGQSASISCRSSKSLLHSNGITYLYWYLQKPGQSPQLLIYQMSNRASGVPDRFSSSGSGTDFTLKISRVEAEDVGVYYCAQNLELPLTFGQGTKLEIK
notes: also called Antibody 33
B13: humanized anti-CSP-1 antibody, Antibody Number 23 (Table 1) (antibody, human IgG1, V domains shown)
VH: EVQLVESGGDLVKPGGSLKLSCAASGFTFSRYGMSWVRQTPDKRLEWVATISIGGTYTYYPDSMKGRFTISRDNAKNTLYLQMSSLKSEDTAMYYCARRGYGNYSYYGMDYWGQGTSVTVSS
VL: DIVMTQAAFSNPVTLGTSASISCRSSKSLLHSVGITYLYWYLQKPGQSPQLLIYQMSNLASGVPDRFSSSGSGTDFTLRISRVEAEDVGVYYCAQNLELPLTFGAGTKLELK
notes: also called Antibody 23
B14: humanized anti-CSP-1 antibody, Antibody Number 31 (Table 1) (antibody, human IgG1, V domains shown)
VH: EVQLVESGGGLVQPGGSLRLSCAASGFTFSRYGMSWVRQAPGKRLEWVATISIGGTYTYYPDSMKGRFTISRDNSKNTLYLQMNSLRAEDTAMYYCARRGYGNYSYYGMDYWGQGTLVTVSS
VL: DIVMTQAAFSNPVTLGTSASISCRSSKSLLHSNGITYLYWYLQKPGQSPQLLIYQMSNLASGVPDRFSSSGSGTDFTLRISRVEAEDVGVYYCAQNLELPLTFGAGTKLELK
notes: also called Antibody 31
B15: humanized anti-CSP-1 antibody, Antibody Number 26 (Table 1) (antibody, human IgG1, V domains shown)
VH: EVQLVESGGDLVKPGGSLKLSCAASGFTFSRYGMSWVRQTPDKRLEWVATISIGGTYTYYPDSMKGRFTISRDNAKNTLYLQMSSLKSEDTAMYYCARRGYGNYSYYGMDYWGQGTSVTVSS
VL: DIVMTQAAFSNPVTLGTSASISCRSSKSLLHSEGITYLYWYLQKPGQSPQLLIYQMSNLASGVPDRFSSSGSGTDFTLRISRVEAEDVGVYYCAQNLELPLTFGAGTKLELK
notes: also called Antibody 26
B16: humanized anti-CSP-1 antibody, Antibody Number 25 (Table 1) (antibody, human IgG1, V domains shown)
VH: EVQLVESGGDLVKPGGSLKLSCAASGFTFSRYGMSWVRQTPDKRLEWVATISIGGTYTYYPDSMKGRFTISRDNAKNTLYLQMSSLKSEDTAMYYCARRGYGNYSYYGMDYWGQGTSVTVSS
VL: DIVMTQAAFSNPVTLGTSASISCRSSKSLLHSQGITYLYWYLQKPGQSPQLLIYQMSNLASGVPDRFSSSGSGTDFTLRISRVEAEDVGVYYCAQNLELPLTFGAGTKLELK
notes: also called Antibody 25
B17: humanized anti-CSP-1 antibody, Antibody Number 34 (Table 1) (antibody, human IgG1, V domains shown)
VH: EVQLVESGGDLVKPGGSLKLSCAASGFTFSRYGMSWVRQTPDKRLEWVATISIGGTYTYYPDSMKGRFTISRDNAKNTLYLQMSSLKSEDTAMYYCARRGYGNYSYYGMDYWGQGTSVTVSS
VL: DIVMTQSALSLPVTLGQSASISCRSSKSLLHSNGITYLYWYLQKPGQSPQLLIYQMSNRASGVPDRFSSSGSGTDFTLKISRVEAEDVGVYYCAQNLELPLTFGQGTKLEIK
notes: also called Antibody 34
B18: humanized anti-CSP-1 antibody, Antibody Number 32 (Table 1) (antibody, human IgG1, V domains shown)
VH: EVQLVESGGGLVQPGGSLRLSCAASGFTFSRYGMSWVRQAPGKGLEWVATISIGGTYTYYPDSMKGRFTISRDNSKNTLYLQMNSLRAEDTAVYYCARRGYGNYSYYGMDYWGQGTLVTVSS
VL: DIVMTQAAFSNPVTLGTSASISCRSSKSLLHSNGITYLYWYLQKPGQSPQLLIYQMSNLASGVPDRFSSSGSGTDFTLRISRVEAEDVGVYYCAQNLELPLTFGAGTKLELK
notes: also called Antibody 32

This experiment has as its target T1, Sec8-His (section 8 (Sec8), an antigenic region of CSP-1, tagged with a polyhistidine (His) tag).
T1 construct: also called Sec8-His antigen
T1 chain: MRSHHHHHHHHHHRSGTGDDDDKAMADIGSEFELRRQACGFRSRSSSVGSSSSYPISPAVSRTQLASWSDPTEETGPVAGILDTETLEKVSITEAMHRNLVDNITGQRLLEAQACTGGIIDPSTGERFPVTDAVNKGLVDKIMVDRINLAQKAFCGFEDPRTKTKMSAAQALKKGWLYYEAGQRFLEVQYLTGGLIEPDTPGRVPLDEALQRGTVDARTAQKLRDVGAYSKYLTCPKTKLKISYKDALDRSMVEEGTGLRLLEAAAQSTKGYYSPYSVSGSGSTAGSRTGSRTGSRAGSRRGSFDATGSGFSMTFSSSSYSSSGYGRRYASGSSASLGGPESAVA
In words: BLI (Octet), single shot: antibody on anti-human IgG tips, 24 nM Sec8-His. The procedure:
After humanization, the antibodies were tested for their capability to bind to an antigenic region of CSP-1 called section 8 (Sec8). Antigen binding was assessed by single-shot Octet analysis. Antibodies were loaded onto anti-human IgG tips, and the loaded tips were dipped into wells containing the Sec8-His antigen. Scouting experiments were used to determine ideal conditions for loading (10 minute incubation in 1 μg/mL IgG) and antigen binding (5 minute incubation in 24 nM Sec8-His, followed by a 5 minute dissociation step in buffer). Two negative controls were included with each experiment. First, a tip was loaded with irrelevant IgG dipped into 24 nM Sec8-His to control for non-specific interactions between the tip and the antigen. Next, tips loaded with humanized 1D7 variants were dipped into 24 nM GST-His to control for off-target binding of the antibody (a significant risk if a given variant is destabilized and/or exposes significant hydrophobic surface). The data from the irrelevant IgG control were subtracted from the data obtained with the […]-loaded tips. The mean and standard deviation of the signal change values for the GST-His control wells were used to calculate a threshold for positive binding (mean+3 standard deviations of the GST-His signal). Variants that were below this threshold are considered to have no specific binding to Sec8.
As to B1, the binding result is listed as “binds”.

On to B2, for which the binding result is given as “binds”. With B3, the binding result is “binds”. As to B4, the binding result is given as “binds”. The value for B5 was “binds”. As for B6, the binding result is recorded as “binds”. Consider B7, for which the binding result is recorded as “binds”. As for B8, the binding result is “binds”.

Take B9: the binding result is “binds”. For B10, the binding result is recorded as “binds”. With B11, the binding result is “binds”.

Take B12: the binding result was “binds”.

For B13, the binding result is “binds”. B14: the binding result was “binds”.

In the case of B15, the binding result is reported as “binds”. With B16, the binding result was “binds”. Turning to B17, the binding result is “binds”. Turning to B18, the binding result is recorded as “binds”.
